In article doi:10.1101/2022.05.11.491540:
Read-outs that look alike come from different tables or passages of the source.

How the values were obtained:
Sirt7 (Sirt7WT) (human) [1] = test: kinetic titration
Sirt7-CLB (human) = test: NanoLuc complementation
[2] = test system: isolated NanoLuc Large Bit; test: NanoLuc complementation
Sirt7 (Sirt7WT) (human) [3] = test: fluorescence polarization

## nucleosome core particle (unmodified)
Sirt7 (Sirt7WT) (human) [1]
  Kd: 2.92 nM

## SMB-Nucs (unmodified small-bit nucleosome)
Sirt7-CLB (human)
  Kd: 3.92 nM
[2]
  Kd: > 5000 nM

## 20 bp FAM-DNA
Sirt7 (Sirt7WT) (human) [3]
  Kd: 57.2 nM

## SMB-AcNucs (H3K18Ac small-bit nucleosome)
Sirt7-CLB (human); histone H3K18 acetylation
  Kd: 3.75 nM
  binding signal (fold lower Kd than without ADPr): 2.5
